# Reference: US20260217847A1 (published 2026)
# Where two headings read alike, the source gives them in different places.
# What was measured:
# Assay in all cases: ELISA
# [1] = molecular target: T1, human recombinant TfR1 protein (amino acids 89-760) (human, UniProt P02786 89-760)
# [2] = molecular target: T1, human recombinant TfR1 protein (amino …); remark: listed apart in the source
# [3] = molecular target: T1, human recombinant TfR1 protein (amino …); remark: listed apart in the source
# T1 sequence (P02786 89-760): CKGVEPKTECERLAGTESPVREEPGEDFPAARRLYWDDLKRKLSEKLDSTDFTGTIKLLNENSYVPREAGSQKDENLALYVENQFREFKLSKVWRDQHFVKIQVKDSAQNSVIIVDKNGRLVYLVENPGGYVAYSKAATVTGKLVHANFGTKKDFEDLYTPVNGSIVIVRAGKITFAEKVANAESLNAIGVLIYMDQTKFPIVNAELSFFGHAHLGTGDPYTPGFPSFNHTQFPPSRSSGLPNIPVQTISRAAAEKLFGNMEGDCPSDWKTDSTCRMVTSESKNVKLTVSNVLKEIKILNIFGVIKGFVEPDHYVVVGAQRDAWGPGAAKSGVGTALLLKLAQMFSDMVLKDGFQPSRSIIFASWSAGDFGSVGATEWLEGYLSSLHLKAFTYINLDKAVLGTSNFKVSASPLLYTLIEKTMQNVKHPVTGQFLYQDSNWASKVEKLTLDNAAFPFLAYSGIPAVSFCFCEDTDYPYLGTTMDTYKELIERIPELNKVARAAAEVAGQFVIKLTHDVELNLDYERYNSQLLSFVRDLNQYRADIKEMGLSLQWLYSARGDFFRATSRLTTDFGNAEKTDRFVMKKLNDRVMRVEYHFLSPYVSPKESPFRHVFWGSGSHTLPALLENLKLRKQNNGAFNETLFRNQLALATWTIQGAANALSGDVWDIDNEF
Binder,EC50 [2],other results
anti-humanized TfR1 single-domain antibody-Fc fusion antibody 8E10-hFC1 (Fc fusion) chain (part 1 of 2): ESGGGLVQAGGSLRLSCAFSGPPFSTYGMGWFRQAPGKEREFVATISGSGFTTTYADSVKGRFTISRDNAKNTVYLQMNSLKPGDTAVYYCAAGVLDGTNWHEYDYWGQGTQVTVSS,–,EC50 [1]: 0.0962 nM
anti-humanized TfR1 single-domain antibody-Fc fusion antibody 5D3-hFC1 (Fc fusion) chain (part 1 of 2): ESGGGLVEPGGSLRLSCAASGNIFSINNMYWHRQAPGKQRELVGGITRGGITNYVDSVKGRFTISRDNAKNTVYLQMNSLKPEDTAVYFCNAHPWRLGIADYWGQGTQVTVSS,0.0861 nM,–
anti-humanized TfR1 single-domain antibody-Fc fusion antibody 4C5-hFC1 (Fc fusion) chain (part 1 of 2): ESGGGLVQPGESLRLSCAASGSIWSIYTMGWYRQAPGLQRDFVGSIAREGGRRYAESVKDRFTISRDNAKNTMYLQMNSLKREDTAVYYCNAITSLGEYWGQGTQVTVSS,–,EC50 [3]: 0.0644 nM
anti-humanized TfR1 single-domain antibody-Fc fusion antibody 5A3-hFC1 (Fc fusion) chain (part 1 of 2): ESGGGLVQAGGSLTLSCAVSRRAFNTKAMGWFRQAPGKEREFVATISWSGFSTNYADSVKGRFTISRDNAKNTVYLQMNSLKPGDTAVYYCAAGVLDGTNWHEYDYWGQGTQVTVSS,0.0761 nM,–
anti-humanized TfR1 single-domain antibody-Fc fusion antibody 2H7-hFC1 (Fc fusion) chain (part 1 of 2): ESGGGLVQPGESLRLSCVASGSIWSIYTMGWYRQAPGKQRDFVASITGDSTRTLESVKDRFIISRDNTKNTLYLQMNSLKPEDTAVYYCQAITSLGEYWGQGTQVTVSS,–,EC50 [1]: 0.0396 nM
anti-humanized TfR1 single-domain antibody-Fc fusion antibody 4D11-hFC1 (Fc fusion) chain (part 1 of 2): ESGGGLVQPGESLRLSCVASGSIWSIYTMGWYRQAPGKQRDFVASITRDSTRTLESVKDRFIISRDNAKNTLYLQMNSLKPEDTAVYYCHAITSLGEYWGQGTQVTVSS,–,EC50 [3]: 0.0592 nM
anti-humanized TfR1 single-domain antibody-Fc fusion antibody 7D10-hFC1 (Fc fusion) chain (part 1 of 2): ESGGGLVQPGGSLRLSCATSGGTFEMYAMAWFRQAPGKDREGVAGFSWRDSSTTYYSDSVKGRFTISRDNAKNTVYLQMNSLKPEDTAVYYCAARPYVSRWSESSGYDYWGQGTQVTVSS,0.151 nM,–

# Further lines, with some results ahead:
EC50 [2],Binder,other results
0.0595 nM,anti-humanized TfR1 single-domain antibody-Fc fusion antibody 5D1-hFC1 (Fc fusion) chain (part 1 of 2): ESGGGLVQPGESLRLSCVASGSIWSIYTMGWYRQAPGKQRDFVASITRDGGRRHAESVKDRFTISRDNAKNTLYLQMNSLKPEDTAVYSCLAITSLGEYWGQGTQVTVSS,–
0.0521 nM,anti-humanized TfR1 single-domain antibody-Fc fusion antibody 7A3-hFC1 (Fc fusion) chain (part 1 of 2): ESGGGLVQPGESLRLSCVASGSIWSIYTMGWYRQAPGKQRDFVASITRDSGRRYAESVKDRFTISRDNAKNTLYLQTNSLKPEDTAVYYCHAITSLGEYWGQGTQVTVSS,–
0.0854 nM,anti-humanized TfR1 single-domain antibody-Fc fusion antibody 7G10-hFC1 (Fc fusion) chain (part 1 of 2): ESGGGLVQAGASLKLSCNGSGRTFISYAMGWFRQAPGKQREFVAAERWSGSGIYYADSLKGRFTISRDNAKNTVYLEMNNLKPEDTAVYYCAAREGGLLHVATSYDYWGQGTQVTVSS,–
0.0724 nM,anti-humanized TfR1 single-domain antibody-Fc fusion antibody 7G5-hFC1 (Fc fusion) chain (part 1 of 2): ESGGGSVQPGGSLRLSCAVSGSIFSIDTMAWYRQAPGKQRELVAAITKGGSRNYADSVKGRFTISRDNAKNTVYLQMNSLKPEDTAVYYCLADRLFRDRSWGQGTQVTVSS,–
